Where two headings read alike, the source gives them in different places.
Legend:
[1] = tested on: FAP-overexpressing mouse colorectal cancer CT26; assay: Tumor growth inhibition by IL-12 mutation, FAP-overexpressing CT26, single i.v. dose; type: in vivo, BALB/c mice; conditions: 10 μg i.v. once, FIG. 28
Procedure: In order to evaluate the change in IL-12 activity according to the presence and extent of amino acid mutation, FAP-overexpressing mouse colorectal cancer CT26 was prepared by resuspending in PBS at a concentration of 5×10^5 cells/100 μl, and the tumor growth inhibitory ability was evaluated in a tumor animal model prepared by transplantation of the cells into 5-week-old female BALB/c mice.
Specifically, when the size of the tumor in the model reached 100 mm^3, the mice were randomly divided into groups. 100 μl of phosphate buffered saline (PBS) was administered once via tail vein injection of the control, and each of T1.01m, T1.02m and T1.03m was intravenously administered once at a dose of 10 μg.

[2] = tested on: mouse FAP overexpressing B16F10 melanoma; assay: Melanoma model, mouse FAP overexpressing B16F10; type: in vivo, C57BL/6J mice; conditions: during the test period
Procedure: In order to identify the anticancer effect through immune activation of the fusion protein, mouse FAP was overexpressed in the mouse melanoma cell line B16F10, which is known to have little immune cell infiltration, and then transplanted into C57BL/6J mice, and the tumor growth inhibitory ability was evaluated.
Specifically, the cells in culture were resuspended in Hanks' Balanced salt solution (HBSS, Gibco), and then 100 μl of 1×10^6 tumor cells per each mouse were transplanted into the subcutaneous region of the left the dorsal flank side of 6-week-old C57BL/6J mice.
(§1) Next, for drug efficacy evaluation, when the size of the tumor reached 70 to 100 mm^3, the mice were randomly divided into groups. As the control, PBS was administered, and as the test group, T1.03m was intravenously administered once at a dose of 10 μg and 100 μg.

[3] = target: T1, recombinant mouse FAP (Mus musculus, UniProt P97321); assay: Surface plasmon resonance binding to recombinant mouse FAP; conditions: SPR, 2 μg/ml protein, FIGS. 13 and 14
T1 sequence (P97321 1-761): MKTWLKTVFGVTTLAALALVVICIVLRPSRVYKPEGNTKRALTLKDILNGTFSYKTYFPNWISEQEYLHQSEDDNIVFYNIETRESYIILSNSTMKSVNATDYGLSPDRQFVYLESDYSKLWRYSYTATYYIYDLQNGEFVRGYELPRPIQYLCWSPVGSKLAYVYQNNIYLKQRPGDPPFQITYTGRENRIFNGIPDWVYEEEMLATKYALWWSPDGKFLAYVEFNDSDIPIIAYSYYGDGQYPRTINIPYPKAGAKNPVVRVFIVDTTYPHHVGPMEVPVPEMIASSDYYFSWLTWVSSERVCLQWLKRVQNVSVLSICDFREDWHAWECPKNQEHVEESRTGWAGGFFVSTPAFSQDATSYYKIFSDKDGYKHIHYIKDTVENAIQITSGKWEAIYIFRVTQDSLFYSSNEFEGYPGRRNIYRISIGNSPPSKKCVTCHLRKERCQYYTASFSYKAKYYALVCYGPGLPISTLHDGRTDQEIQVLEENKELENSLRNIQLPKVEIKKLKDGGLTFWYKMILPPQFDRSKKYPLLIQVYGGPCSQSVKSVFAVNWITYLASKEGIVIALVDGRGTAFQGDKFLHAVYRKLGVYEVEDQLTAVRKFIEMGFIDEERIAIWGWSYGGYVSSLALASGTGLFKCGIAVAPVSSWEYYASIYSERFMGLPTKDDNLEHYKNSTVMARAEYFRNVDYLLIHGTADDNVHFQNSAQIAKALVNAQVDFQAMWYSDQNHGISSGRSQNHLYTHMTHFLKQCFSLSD
Procedure: The surface of the CM5 chip was activated with a 1:1 mixture of […] (N-hydroxysuccinimide) and […] (1-Ethyl-3-(3-dimethylaminopropyl) carbodiimide), and 25 μg/ml of anti-mouse IgG (Fc) antibody was immobilized for 400 seconds at a rate of 10 μl/min. The remaining active ester groups were blocked with 1 M ethanolamine. T1.01m, T1.02m and T1.03m were diluted to 2 μg/ml and reacted on the CM5 chip immobilized with the anti-mouse IgG (Fc) antibody. The recombinant mouse FAP was diluted to 200 nM in 1×HBS-EP+buffer solution and diluted by serial dilution. The diluted recombinant mouse FAP was reacted at a rate of 30 μl/min. The association and dissociation times were 180 seconds and 400 seconds, respectively. After the dissociation, stabilization was performed for 60 seconds, and then a regeneration was performed for 30 seconds with a 10 mM glycine pH 1.5 solution at a rate of 30 μl/min.

[4] = tested on: LLC1 lung cancer with NIH-3T3 overexpressing FAP; assay: Cancer targeting efficacy, LLC1 co-injected with FAP overexpressing NIH-3T3; type: in vivo, mouse; conditions: FIG. 32
From the text: In order to compare the anticancer efficacy according to the cancer targeting of the dual antibody-type fusion protein in which the anti-FAP sequence structure and the IL-12 sequence structure form a Knob-in-Hole structure, the tumor growth inhibitory ability was identified in an animal model co-injected with NIH-3T3 cell overexpressing FAP, a mouse fibroblast cell line, and LLC1, a mouse lung cancer cell line, in a 1:1 ratio.
Specifically, for drug efficacy evaluation, when the size of the tumor reached 70 to 100 mm^3, the mice were randomly divided into groups. As the control, PBS was intraperitoneally administered twice a week. The group administered with T1.16m or T1.17m alone, the group administered with T1.16m and T1.17m in combination (T1.16m+T1.17m), and the group administered with T1.03m were used as test groups to evaluate the tumor growth inhibitory ability. T1.16m and T1.17m, which are dimers of anti-FAP and IL-12, respectively, were intraperitoneally administered twice a week at a dose of 0.01 μg, and T1.03m, which is a monomer fusion protein, was intraperitoneally administered twice a week at a dose of 0.02 μg to observe the tumor growth inhibitory ability.

[5] = tested on: LLC1 lung cancer with NIH-3T3 overexpressing FAP; type: in vivo, C57BL/6J mice
Procedure: Specifically, the NIH-3T3 cell line overexpressing FAP and the LLC1 cells were resuspended in Hanks' Balanced salt solution (HBSS, Gibco) at a concentration of 1×10^6 cells/50 μl, respectively, and the cells were mixed in a 1:1 ratio, and then 100 μl per each mouse was transplanted into the subcutaneous region of the right flank of 6-week-old C57BL/6J mice using a 1 cc syringe (25G).
as §1

[6] = tested on: HEK-Blue IL-12 cells; assay: Signaling ability in IL-12 recognizing cells (STAT4 inducible SEAP reporter); type: cell-based, human; conditions: serial dilution from 4 nM, 24 hours, FIG. 18
Procedure: The HEK-Blue IL-12 cell line transformed with the IL-12 receptor gene and the STAT4 inducible SEAP reporter gene into HEK293 cells, which are human embryonic kidney fibroblasts, was obtained from Invivogen (San Diego, USA). The HEK-Blue IL-12 cells were maintained in DMEM (GIBCO) containing 10% FBS (GIBCO), 100 μg/ml Normocin and 1×HEK-Blue selection.
Specifically, the HEK-Blue IL-12 cell line, which is an IL-12 recognizing cell, was diluted to 2.8×10^5 cells/ml and dispensed at 180 μl/well. Recombinant human IL-12, T1.01m, T1.02m, T1.03m and T1.12m were suspended at 4 nM and diluted by serial dilution. HEK-Blue IL-12 cells were treated with the diluted recombinant human IL-12, T1.01m, T1.02m, T1.03m and T1.12m. After 24 hours of treatment, the cell supernatant was collected and mixed with QUANTI-Blue Solution (Invivogen) in a 96-well plate. The reporter expression level was measured at 620 nm using a spectrophotometer (Thermo Fisher).

[7] = tested on: FAP-overexpressing mouse colorectal cancer cell line CT26 cells; assay: Single administration of T1.03m in FAP-overexpressing CT26 model; type: in vivo, BALB/c mice
Procedure: Specifically, the tumor cells were transplanted into the right dorsal flank side of 6-week-old BALB/c mice, and when the size of the tumor of the animal model reached 70 to 100 mm^3, the mice were randomly divided into groups and the administration was performed. As the control, PBS was administered, and as the test group, 100 μl of T1.03m was intravenously administered once at a dose of 2 μg, 10 μg and 100 μg. The size of the tumor was measured in the same manner as in Example 4.1.

B1: T1.03m: K&H bispecific: anti-mu FAP/mu IL-12 mut2, mu IgG2a DANG (seq18, seq19, seq22) (antibody)
heavy: QVQLQQSGAELARPGASVNLSCKASGYTFTNNGINWLKQRTGQGLEWIGEIYPRSTNTLYNEKFKGKATLTADRSSNTAYMELRSLTSEDSAVYFCARTLTAPFAFWGQGTLVTVSAAKTTAPSVYPLAPVCGDTTGSSVTLGCLVKGYFPEPVTLTWNSGSLSSGVHTFPAVLQSDLYTLSSSVTVTSSTWPSQSITCNVAHPASSTKVDKKIEPRGPTIKPCPPCKCPAPNLLGGPSVFIFPPKIKDVLMISLSPIVTCVVVAVSEDDPDVQISWFVNNVEVHTAQTQTHREDYGSTLRVVSALPIQHQDWMSGKEFKCKVNNKDLPAPIERTISKPKGSVRAPQVYVLPPPEEEMTKKQVTLWCMVTDFMPEDIYVEWTNNGKTELNYKNTEPVLDSDGSYFMYSKLRVEKKNWVERNSYSCSVVHEGLHNHHTTKSFSRTPGK
light: QIVLTQSPAIMSASPGEKVTMTCSASSGVNFMHWYQQKSGTSPKRWIFDTSKLASGVPARFSGSGSGTSYSLTISSMEAEDAATYYCQQWSFNPPTFGGGTKLEIKRADAAPTVSIFPPSSEQLTSGGASVVCFLNNFYPKDINVKWKIDGSERQNGVLNSWTDQDSKDSTYSMSSTLTLTKDEYERHNSYTCEATHKTSTSPIVKSFNRNEC
chain: MWELEKDVYVVEVDWTPDAPGETVNLTCDTPEEDDITWTSDQRHGVIGSGKTLTITVKEFLDAGQYTCHKGGETLSHSHLLLHKKENGIWSTEILKNFKNKTFLKCEAPNYSGRFTCSWLVQRNMDLKFNIKSSSSSPDSRAVTCGMASLSAEKVTLDQRDYEKYSVSCQEDVTCPTAEETLPIELALEARQQNKYENYSTSFFIRDIIKPDPPKNLQMKPLKNSQVEVSWEYPDSWSTPHSYFSLKFFVRIQAAAEKMAETEEGCNQKGAFLVEKTSTEVQCKGGNVCVQAQDRYYNSSCSKWACVPCRVRSGGGGSGGGGSGGGGSRVIPVSGPARCLSQSRNLLKTTDDMVKTAREKLKHYSCTAEDIDHEDITRDQTSTLKTCLPLELHKNESCLATRETSSTTRGSCLPPQKTSLMMTLCLGSIYEDLKMYQTEFQAINAALQNHNHQQIILDKGMLVAIDELMQSLNHNGETLRQKPPVGEADPYRVKMKLCILLHAFSTRVVTINRVMGYLSSAGGGGSGGGGSEPRGPTIKPCPPCKCPAPNLLGGPSVFIFPPKIKDVLMISLSPIVTCVVVAVSEDDPDVQISWFVNNVEVHTAQTQTHREDYGSTLRVVSALPIQHQDWMSGKEFKCKVNNKDLPAPIERTISKPKGSVRAPQVYVLPPPEEEMTKKQVTLSCAVTDFMPEDIYVEWTNNGKTELNYKNTEPVLDSDGSYFMVSKLRVEKKNWVERNSYSCSVVHEGLHNHHTTKSFSRTPGK
[1]; 15 days after administration, control PBS
  tumor growth inhibitory ability compared to the control: excellent tumor growth inhibitory ability
[1]
  tumor growth inhibitory ability compared to the group administered with T1.01m: reduced
[2]
  change in body weight: No change in body weight
[3]
  Binding to recombinant mouse FAP: may bind to recombinant mouse FAP to specifically target FAP
[4]; 0.02 μg i.p. twice a week, 10 days after administration, control PBS
  tumor growth inhibitory ability compared to the control: excellent tumor growth inhibitory ability
[4]; T1.03m 0.02 μg, T1.16m and T1.17m 0.01 μg, i.p. twice a week
  tumor growth inhibitory ability compared with T1.16m or T1.17m alone and their combination: excellent tumor growth inhibitory ability
[5]; 10 μg or 100 μg i.v. once, control PBS, FIG. 31
  tumor growth inhibitory ability compared to the control: excellent tumor growth inhibitory ability
[5]; mouse, in vivo
  change in body weight: No change in body weight
[6]
  IL-12 recognition / STAT4 reporter gene expression (620 nm absorbance): IL-12 was recognized, and STAT4 expressed a reporter gene by inducing phosphorylation
[7]; 2 μg, 10 μg and 100 μg i.v. once, control PBS, FIG. 29
  tumor growth inhibitory ability compared to the control: high tumor growth inhibitory ability
[7]; during the test period
  change in body weight: No change in body weight

Source: US20250144178A1, “PHARMACEUTICAL COMPOSITION FOR CANCER TREATMENT COMPRISING FUSION PROTEIN INCLUDING IL-12 AND ANTI-FAP ANTIBODY AND ANTICANCER AGENT” (KANAPH THERAPEUTICS INC., priority 2022, published 2025)
